Test results reported in the supplement of paper PMC12764529.
± gives the half width of the 95% confidence interval.

Legend:
[1] = folding stability dG unfold from trypsin proteolysis; higher = more stable
Outline: (§1)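 K50 was inferred by Bayesian fitting of sequencing counts obtained after protease digestion of designed mini-proteins. Unfolding free energy was derived by comparison with a sequence-predicted unfolded-state K50 and a shared folded-state K50, for each protease or both combined. The mini-proteins were under 80 residues, had no cysteine, were carried in a PA-tagged cDNA display construct, and were kept only if AlphaFold2 dimer inter-PAE exceeded 15.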

[2] = folding stability dG unfold from chymotrypsin proteolysis; higher = more stable
Outline: as §1

[3] = folding stability dG unfold (combined trypsin and chymotrypsin); higher = more stable
Outline: as §1

Sequence	folding stability dG unfold [1]	folding stability dG unfold [2]	folding stability dG unfold [3]
SAGGSAGGSLTVSFPGITLTLETVPGTGKIIATVTFPGGEVRTISSDVPLSELPPVVREALELLSAGGSAGG [r6_749_JUSTAS]	2.72 ± 0.087 kcal/mol	2.67 ± 0.051 kcal/mol	2.74 ± 0.072 kcal/mol
SAGGSAGGSLVLPDDYKVIVREFDLSDVGRAVREVMEEFDVKDALFLAVPLPGKVLLFVVVKESAGGSAGGS [r12_929_TrMRF]	2.95 ± 0.098 kcal/mol	2.9 ± 0.076 kcal/mol	2.99 ± 0.21 kcal/mol
SAGGSAGGSMEELPEGAELIREEDGVAVVRNENGELLVVRRVDGKLEVRRFPPGMSIEEALAKSAGGSAGGS [r12_605_TrROS_Hall]	2.95 ± 0.064 kcal/mol	3.07 ± 0.04 kcal/mol	3.05 ± 0.045 kcal/mol
SAGGSAGGSMELDEDGRLIVRIKVRDKETKEWKEIEIELPGLTEEEIRKLAEELGAEEIEILPSAGGSAGGS [r12_792_TrROS_Hall]	2.35 ± 0.061 kcal/mol	2.39 ± 0.083 kcal/mol	2.43 ± 0.078 kcal/mol
SAGGSAGGSMELVIKTVTVNSPSKSPEELAKEIEEKYGVKILKVEVTEDPEGGVTVTATIINKSAGGSAGGS [r12_359_JUSTAS]	1.72 ± 0.065 kcal/mol	1.34 ± 0.015 kcal/mol	1.49 ± 0.041 kcal/mol
SAGGSAGGSMELVIPKEEVEKMSEEVVKKIKELAKKANISISETEDSLVIPIKKVSEKVIKELSAGGSAGGS [r12_945_JUSTAS]	-0.325 ± 0.075 kcal/mol	0.497 ± 0.045 kcal/mol	0.232 ± 0.1 kcal/mol
SAGGSAGGSMEPRPVVITFRDPEGNFIGTVELPAEFESEEEALAAAEAVRAANPGYTVEIEGLSAGGSAGGS [r20_201_JUSTAS]	1.67 ± 0.084 kcal/mol	1.98 ± 0.033 kcal/mol	1.87 ± 0.07 kcal/mol
SAGGSAGGSMETITLPEDVKVEVVEVEPGSVIEVEFEDGLVARVRIDPENLEKVEIEVFPKEESAGGSAGGS [r12_648_TrROS_Hall]	-0.0965 ± 0.16 kcal/mol	0.826 ± 0.16 kcal/mol	0.694 ± 0.17 kcal/mol
SAGGSAGGSMETRTFDSEEELRASVSVPSSLSVTFERRPGRWEVRIEPPLSPEEIAAQRARLLSAGGSAGGS [r12_274_JUSTAS]	-0.346 ± 0.17 kcal/mol	-1.07 ± 0.6 kcal/mol	-0.553 ± 0.11 kcal/mol
SAGGSAGGSMETTREELPPELTVERVTEREPGEGRITVRVKVYRPDGTLLSEEVVERDPEDLESAGGSAGGS [r12_240_JUSTAS]	0.319 ± 0.053 kcal/mol	0.166 ± 0.14 kcal/mol	0.295 ± 0.097 kcal/mol
SAGGSAGGSMETVTVLLNTPGTPVTFTFPVPAGVGEEAVKELVRKALPEVEIEVVEITTTPAASAGGSAGGS [r12_427_JUSTAS]	0.338 ± 0.073 kcal/mol	0.585 ± 0.21 kcal/mol	0.463 ± 0.15 kcal/mol
SAGGSAGGSMETVVTVPLPDGRTLTITRYPDGTVTVTYPDGTPVATRPVAPDTSDEAVVAALASAGGSAGGS [r12_990_JUSTAS]	0.522 ± 0.016 kcal/mol	1.83 ± 0.023 kcal/mol	1.54 ± 0.037 kcal/mol
SAGGSAGGSMEVTVTPLPDGSLLVTVTVTTSSTPVPVELRFPPSASLEEIRAAAEARAAEVAASAGGSAGGS [r12_69_JUSTAS]	0.883 ± 0.029 kcal/mol	1.73 ± 0.025 kcal/mol	1.57 ± 0.047 kcal/mol
SAGGSAGGSMFKVIVESEDPEKALEEAKALIEKIEEEGIGEIKKFEFLIVPKDIPEYKKLKEKSAGGSAGGS [r12_551_TrMRF]	-0.306 ± 0.45 kcal/mol	0.438 ± 0.18 kcal/mol	-0.0656 ± 0.3 kcal/mol
SAGGSAGGSMGVTVTSEEDPEVRRVRETIETPSGSVVERDMVLTRPPDGPLLREALSEKVFRPSAGGSAGGS [r12_758_JUSTAS]	-0.324 ± 0.15 kcal/mol	-1.18 ± 0.48 kcal/mol	-0.582 ± 0.28 kcal/mol
SAGGSAGGSMIIIVKLPNGEELPIEVEGEEEAEKIAEEIVKALIEKGITPVSVEIRPIKPEEGSAGGSAGGS [r12_301_TrMRF]	3.13 ± 0.13 kcal/mol	2.28 ± 0.17 kcal/mol	2.97 ± 0.21 kcal/mol

Sequence	folding stability dG unfold [1]	folding stability dG unfold [2]	folding stability dG unfold [3]
SAGGSAGGSMIIRIKTENGEEIEIEAESEEEAKKAAEELKKELEEKGYKIEEVEIYEIPEEELSAGGSAGGS [r12_301_TrROS_Hall]	1.13 ± 0.076 kcal/mol	2.32 ± 0.13 kcal/mol	2.05 ± 0.26 kcal/mol
SAGGSAGGSMIKRTVTVTVYFPGKPLSIPVEYTSEEELPVVAEEAVKPIIEKVPEYKIPEPKLSAGGSAGGS [r12_230_JUSTAS]	0.529 ± 0.21 kcal/mol	0.292 ± 0.2 kcal/mol	0.561 ± 0.33 kcal/mol
SAGGSAGGSMIVKLEDGTYLVRIVNKDTKEVIEIEVSAEEAEELAKELNIEKVEIVKAGEPLESAGGSAGGS [r12_294_TrROS_Hall]	1.78 ± 0.069 kcal/mol	2.71 ± 0.059 kcal/mol	2.38 ± 0.17 kcal/mol
SAGGSAGGSMIVVPESVSPEEAEATARQVAQELGISPDTPLEVEIKEVKTGENSVYEIRVTLRSAGGSAGGS [r12_252_JUSTAS]	0.097 ± 0.056 kcal/mol	0.19 ± 0.13 kcal/mol	0.199 ± 0.092 kcal/mol
SAGGSAGGSMKIKVEVEMEKVKDPKKKGEYIYKMKIKKVEIELSEEEKEKLKELAEKLGIEVESAGGSAGGS [r12_249_TrROS_Hall]	1.42 ± 0.066 kcal/mol	2.35 ± 0.074 kcal/mol	2.08 ± 0.17 kcal/mol
SAGGSAGGSMKIPEDETYEEKLPDGRKVTYTWEPESGLLKTTTTDPNNDTPTTSTYKVPPSSLLSAGGSAGG [r6_407_JUSTAS]	0.0466 ± 0.2 kcal/mol	0.49 ± 0.31 kcal/mol	0.262 ± 0.25 kcal/mol
SAGGSAGGSMKIPSDYTLTPIETKDNGASTVTLEKVTYPGPSLLATFLTPPDGTVTLLEVKPVSAGGSAGGS [r20_103_JUSTAS]	0.525 ± 0.046 kcal/mol	1.24 ± 0.072 kcal/mol	0.997 ± 0.065 kcal/mol
SAGGSAGGSMKITKSPSGYYTVTINLPNGTTVEIKVSTSDPNATDEQIIEIAKPKAEEILKKSSAGGSAGGS [r12_642_JUSTAS]	1.16 ± 0.054 kcal/mol	2.87 ± 0.12 kcal/mol	2.53 ± 0.14 kcal/mol
SAGGSAGGSMKIYEVPPEVAENMSLEEIIESLVLPGYPAKAEAFEDEGPGYVLVDLFLPPELGSAGGSAGGS [r12_716_TrMRF]	-0.666 ± 0.12 kcal/mol	1.02 ± 0.029 kcal/mol	0.842 ± 0.13 kcal/mol
SAGGSAGGSMKKIKVKIKITDKDGNKKEVEAEIFFDEETGKLYIKLPNGEVKEISLEDIEIVESAGGSAGGS [r12_256_TrROS_Hall]	2.46 ± 0.08 kcal/mol	4.01 ± 0.069 kcal/mol	3.63 ± 0.09 kcal/mol
SAGGSAGGSMKLEVEAELEVPLPNGKPKRFKVKFRVEPGESGVKVEVLEVDDPLVVEAIKKLFSAGGSAGGS [r12_743_TrMRF]	2.2 ± 0.034 kcal/mol	3 ± 0.072 kcal/mol	2.65 ± 0.096 kcal/mol
SAGGSAGGSMKLTLESASPDPNKVTYTIKFPGGETLTEELPEEEIEKRSKELGWNIKLFGPTKSAGGSAGGS [r12_676_JUSTAS]	-0.0326 ± 0.29 kcal/mol	0.098 ± 0.42 kcal/mol	-0.0928 ± 0.28 kcal/mol
SAGGSAGGSMKNIKEIKVERRKLPNGGEYYVVTITYPDGKEIIIEMSPEETLEEALEKAKELSSAGGSAGGS [r12_1047_JUSTAS]	2.87 ± 0.16 kcal/mol	3.01 ± 0.21 kcal/mol	2.92 ± 0.13 kcal/mol
SAGGSAGGSMKPLGQGDFEDPDGWKIKISMYPDGWFRIEIYDKNGKPKETIPVPANDLPDILKSAGGSAGGS [r12_664_TrROS]	0.664 ± 0.027 kcal/mol	1.43 ± 0.053 kcal/mol	1.21 ± 0.064 kcal/mol
SAGGSAGGSMKTITVTFSSEEEAKKAAEEILKKEGFDEKIKEVTLTYSKEGNVLTGTVTVKTPSAGGSAGGS [r12_7_JUSTAS]	0.449 ± 0.042 kcal/mol	1.2 ± 0.046 kcal/mol	0.945 ± 0.089 kcal/mol
